Patent US20240076386A1 (Pfizer, published 2024)

T1: human E-selectin, cell-surface expressed (human, UniProt P16581 22-610)
T1 construct: also called CHO-human E-selectin cells; human CHO-E
T1 sequence: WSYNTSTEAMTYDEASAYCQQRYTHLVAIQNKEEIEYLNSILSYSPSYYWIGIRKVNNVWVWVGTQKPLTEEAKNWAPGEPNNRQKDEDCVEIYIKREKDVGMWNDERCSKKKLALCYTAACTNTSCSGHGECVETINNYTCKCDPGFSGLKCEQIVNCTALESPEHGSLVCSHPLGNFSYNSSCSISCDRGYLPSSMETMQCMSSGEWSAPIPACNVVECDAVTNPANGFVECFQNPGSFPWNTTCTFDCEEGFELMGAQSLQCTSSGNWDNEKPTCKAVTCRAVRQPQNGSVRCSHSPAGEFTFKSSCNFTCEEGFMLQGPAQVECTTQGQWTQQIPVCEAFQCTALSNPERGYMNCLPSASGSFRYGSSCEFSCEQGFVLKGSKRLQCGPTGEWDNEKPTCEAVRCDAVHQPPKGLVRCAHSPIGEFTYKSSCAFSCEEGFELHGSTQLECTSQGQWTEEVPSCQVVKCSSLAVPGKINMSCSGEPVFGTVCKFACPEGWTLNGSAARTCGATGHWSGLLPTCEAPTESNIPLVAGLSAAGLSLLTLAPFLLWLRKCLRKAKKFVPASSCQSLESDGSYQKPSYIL


Assays:
[1] = biological target: T1, human E-selectin, cell-surface expressed; assay: competition ELISA on CHO cells vs sialyl Lewis ligand-PAA-biotin/SA-HRP
Experimental: In a static ligand cellular adhesion assay, horse radish peroxidase (HRP) conjugated E-selectin ligand (sialyl Lewis antigen) and E-selectin antibodies compete for binding to human or cynomolgus E-selectin expressed on Chinese hamster ovary (CHO) cells. The ability of anti-E-selectin antibodies to neutralize ligand binding was assessed in a static neutralization assay using a competition enzyme-linked immunosorbent assay (ELISA) to evaluate the neutralization of the sialyl Lewis antigen to Chinese hamster ovary cells (CHO) engineered to express human or cynomolgus monkey E-selectin.
CHO cells expressing E-selectin were seeded at 12,500 cells per well into a 96 well tissue culture plate and incubated at 37° C., 5% CO₂ for 48 hours to form a confluent monolayer. Plates were subsequently washed twice with 200 μL of calcium magnesium free PBS. Anti-E-selectin antibodies or an IgG1 isotype control (IgG control) were added to the assay in the presence of a small synthetic conjugate of biotinylated, sialyl Lewis A polyacrylamide (Carbosynth LLC, OS45446) or sialyl Lewis X polyacrylamide (Glycotech, 01-045) with streptavidin/horseradish peroxidase (100 μL total) and incubated at 37° C., 5% CO₂ for 2 hours. Plates were then washed twice with 200 μL of calcium and magnesium free PBS. Following the incubation, the cells were washed twice with 200 μL of wash buffer containing 2 mM of calcium chloride (50 mM TRIS [trisaminomethane], 150 mM sodium chloride; 0.05% polysorbate 20, pH 7.4; 2 mM calcium chloride). Signal was developed by adding 100 μL of 1-Step Ultra TMB substrate (Thermo Scientific, 34028) and incubating for 30 minutes at room temperature. Reactions were stopped using 2 M of sulfuric acid and absorbance was read at 450 nm (Spectramax M5e). Data were analyzed and graphed using GraphPad Prism software (Version 8.0.2).

[2] = biological target: T1, human E-selectin, cell-surface expressed; assay: flow cytometry, CHO cells
Experimental: Cells were maintained in growth medium at 37° C., 5% CO₂ and 95% air in a humidified incubator. Methotrexate or Zeocin were removed from the medium prior to culture for experiments. CHO-E selectin cells or P-selectin cells were detached from T-150 flasks using citric saline (135 mM KCl, 15 mM sodium citrate) and immediately re-calcified with the addition of CaCl₂) to the detached cells to a final concentration of 1 mM. Growth media was immediately added to the detached cells, then centrifuged at 300×g for 5 minutes at room temperature to pellet the cells. Cells were plated into 96-well V-bottom plates in cold CHO buffer consisting of phosphate buffered saline (PBS), pH 7.4 containing bovine serum albumin (BSA; Sigma-Aldrich) at final concentration of 1%, calcium chloride at final concentration of 1 mM, and sodium azide at a final concentration of 0.1%, for 5 minutes on wet ice. After incubation, the cells were centrifuged at 300×g for 2 minutes at 4° C. to remove the buffer.
After incubation, antibodies were removed and the cells were washed three times by centrifugation at 300×g for 1 minute at 4° C. and resuspended in cold CHO buffer. The washed cells were incubated for 30 minutes on wet ice with 100 μL of a 1:1000 dilution of APC-conjugated AffiniPure F(ab′)₂ Fragment Goat Anti-human IgG, Fcγ (Jackson Imnnunoresearch). The cells were washed three or four times prior to resuspension in CHO buffer for flow cytometric analysis. A Becton Dickinson LSRFortessa instrument using 640 nanometer laser line was used to acquire cell fluorescence data. Geometric mean fluorescence of cells was analyzed by FlowJo software package (FlowJo, LLC) and plotted against antibody concentration. The estimated EC₅₀ values were calculated using nonlinear regression analysis in the Prism suite (GraphPad, version 8) (Table 8).

[3] = biological target: T1, human E-selectin, cell-surface expressed; assay: competition ELISA on CHO cells vs sialyl Lewis A-PAA-biotin/SA-HRP
Experimental: The ability of anti-E-selectin antibodies to neutralize ligand binding was assessed in a static neutralization assay using a competition enzyme-linked immunosorbent assay (ELISA) to evaluate the neutralization of the sialyl Lewis antigen to Chinese hamster ovary cells (CHO) engineered to express E-selectin.
Briefly, CHO cells expressing human E-selectin were grown in culture medium (MEM (Minimum Essential Medium) Alpha Medium, supplemented with 10% dialyzed fetal bovine serum, 100 nM methotrexate and 100 Units/mL penicillin and 100 μg/mL streptomycin) and were seeded at 12,500 cells per well into a 96 well tissue culture plate and incubated at 37° C., 5% CO₂ for 48 hours to form a confluent monolayer. Plates were subsequently washed twice with 200 μL of calcium magnesium free phosphate buffered saline (PBS). […] Plates were then washed twice with 200 μL of calcium magnesium free PBS. Following the incubation, the cells were washed twice with 200 μL of wash buffer containing 2 mM of calcium chloride (50 mM TRIS [trisaminomethane], 150 mM sodium chloride; 0.05% polysorbate 20, pH 7.4; 2 mM of calcium chloride). Signal was developed by adding 100 μL of 1-Step Ultra TMB substrate (Thermo Scientific, 34028) and incubating for 30 minutes at room temperature. Reactions were stopped using 2 M of sulfuric acid and absorbance read at 450 nm (Spectramax M5e). Data were analyzed and graphed using GraphPad Prism software (Version 8.0.2).

Row | IC50 [1] | EC50 [2] | IC50 [3] | Binder
1 | 2.56 nM | – | – | humanized anti-E-selectin antibody 0841 (antibody, human IgG1, kappa, V domains shown, effector-null human IgG1, kappa) VH: EVQLVESGGGLVQPGGSLRLSCAASGYNIRSSYMHWVRQAPGKGLEWVARIDPANGNTIYAEKFKIRFTISADNAKNSAYLQMNSLRAEDTAVYYCAMDLYSTSEYWGQGTLVTVSS VL: DIQMTQSPSSLSASVGDRVTITCKTSQNINRYLNWYQQKPGKAPKLLIYNANSLQTGVPSRFSGSGSGTDFTLTISSLQPEDFATYFCLQDNSWPLTFGQGTKVEIKR
2 | 1.38 nM | – | – | optimized anti-E-selectin antibody 1282 (antibody, human IgG1, kappa, V domains shown, effector-null human IgG1, kappa) VH: EVQLVESGGGLVQPGGSLRLSCAASGYAIRSAYMHWVRQAPGKGLEWVARIDPANGNTIYVDSVEGRFTISADNAKNSAYLQMNSLRAEDTAVYYCAMDLYSTSEYWGQGTLVTVSS VL: DIQMTQSPSSLSASVGDRVTITCKTSQNIERYLNWYQQKPGKAPKLLIYAASSLQSGVPSRFSGSGSGTDFTLTISSLQPEDFATYFCLQDNAWPLTFGQGTKVEIKR
3 | 2.89 nM | – | – | optimized anti-E-selectin antibody 1444 (antibody, human IgG1, kappa, V domains shown, effector-null human IgG1, kappa) VH: EVQLVESGGGLVQPGGSLRLSCAASGYAIRSAYMHWVRQAPGKGLEWVARIDPANGNTIYVDSVTGRFTISADNAKNSAYLQMNSLRAEDTAVYYCAMDLYSTSEYWGQGTLVTVSS VL: DIQMTQSPSSLSASVGDRVTITCKTSQNIERYLNWYQQKPGKAPKLLIYAASSLQSGVPSRFSGSGSGTDFTLTISSLQPEDFATYFCLQDNAWPLTFGQGTKVEIKR
4 | 2.78 nM | – | – | optimized anti-E-selectin antibody 1448 (antibody, human IgG1, kappa, V domains shown, effector-null human IgG1, kappa) VH: EVQLVESGGGLVQPGGSLRLSCAASGYAIRSAYMHWVRQAPGKGLEWVARIDPANGNTIYVDSVKERFTISADNAKNSAYLQMNSLRAEDTAVYYCAMDLYSTSEYWGQGTLVTVSS VL: DIQMTQSPSSLSASVGDRVTITCKTSQNIERYLNWYQQKPGKAPKLLIYAASSLQSGVPSRFSGSGSGTDFTLTISSLQPEDFATYFCLQDNAWPLTFGQGTKVEIKR
5 | 2.77 nM | – | – | optimized anti-E-selectin antibody 1284 (antibody, human IgG1, kappa, V domains shown, effector-null human IgG1, kappa) VH: EVQLVESGGGLVQPGGSLRLSCAASGYAIRSAYMHWVRQAPGKGLEWVARIDPANGNTIYVESVEGRFTISADNAKNSAYLQMNSLRAEDTAVYYCAMDLYSTSEYWGQGTLVTVSS VL: DIQMTQSPSSLSASVGDRVTITCKTSQNIERYLNWYQQKPGKAPKLLIYAASSLQSGVPSRFSGSGSGTDFTLTISSLQPEDFATYFCLQDNAWPLTFGQGTKVEIKR
6 | – | 3.75 nM | 2.87 nM | anti-E-selectin antibody 0158 chimera (antibody, human IgG1, kappa, V domains shown, rat VH/VL on effector-null human IgG1 and human kappa) VH: QVQLKESGPGLVQPSETLSLTCTVSGFSISTYNVHWLRQPPGKGLEWMGMMWSGGSPDYNSALKSRLSISRDTSKNQVFLKMNSLQSEDTTTYYCARWGGGFDYWGQGVMVTVSS VL: DIVLTQSPTTLSVTPGETVSLSCRASHSIGTNLHWYQQKTNESPRLLIKFTSQSISGIPSRFSASGSGTDFTLNINNVEFDDVSSYFCQQTQSWPLTFGSGTKLEIKR
7 | – | 2.44 nM | 3.24 nM | anti-E-selectin antibody 0159 chimera (antibody, human IgG1, kappa, V domains shown, rat VH/VL on effector-null human IgG1 and human kappa) VH: EVQLQQSGAELGKPGTSVKLSCKVSGYNIRSTYMHWVSQRPGKGLEWIGRIDPANGNTIYAEKFKRKATLTADTSSNTAYMQLSQLKSDDRAIYFCAMEVRVSFEYWGQGVMVTVSS VL: DIQMTQSPSFLSASVGDRVTINCKASQNINKYLDWYQQKLGEGPKLLIYYTNNLHTGIPSRFSGSGSGTDFTLTISSLQPEDVATYFCLQHDSGYTFGAGTKLELKR
8 | – | 1.99 nM | 2.3 nM | anti-E-selectin antibody 0170 chimera (antibody, human IgG1, kappa, V domains shown, rat VH/VL on effector-null human IgG1 and human kappa) VH: EVQLQQSGAELGKPGTSVKLSCKVSGYSIRSTYMHWVNQRPGKGLEWVGRIDPANGNTIYAERFKNKATLTADTSSNTAYMQLSQLKSDDTAIYFCAVEILGIFDYWGQGVMVTVSS VL: DIQMTQSPSFLSASVGDRVTINCKASQNIDKYLDWYQQKLGEAPKLLMYNTNSLHTGIPSRFSGSGSGTDFTLTISSLQPEDVATYFCLQHNSGYTFGAGTKLELKR
9 | – | 4.99 nM | 3.76 nM | anti-E-selectin antibody 0039 chimera (antibody, human IgG1, kappa, V domains shown, rat VH/VL on effector-null human IgG1 and human kappa) VH: QVQLKETGPGLVQPTQTLSITCTVSGFSLTGYYMQWVRQTPGKGLEWMGFIRSSGSTEYNSEFKSRLSISRDTSKNQVFLKMNSLKTEDTGVYYCARCPYKYSSFVYVGVMDAWGQGAPVTVSS VL: EIVMTQSPTSMSTSIGERVTLNCKASQTVGINVDWYQQTPGQPPKLLIYGASNRHTGVPDRFTGSGFGRDFTLTISNVEAEDLAVYCCLQYGSIPHTFGPGTKLELKR
10 | – | 4.31 nM | 3.83 nM | anti-E-selectin antibody 0180 chimera (antibody, human IgG1, kappa, V domains shown, rat VH/VL on effector-null human IgG1 and human kappa) VH: EVQLQQSGAELGKPGTSVKLSCKVSGYKIRSSYMHWVNQRPGKGLEWIGRIDPANGNTIYGDKFKSKATLTSDTSSNTAYIQLSQLKSDDTAIYFCAIDIGTTFDYWGQGVMVTVSS VL: DIQMTQSPSFLSASVGDRVTINCKASQHINRYLNWYQQKLGEAPKLLIYDANNLQTGIPSRFSGSGSGTDFTLTISSLQPEDVATYFCLQHNSWPNTFGAGTKLELKR
11 | 2.69 nM | 4.43 nM | 2.77 nM | anti-E-selectin antibody 0164 chimera (antibody, human IgG1, kappa, V domains shown, rat VH/VL on effector-null human IgG1 and human kappa) VH: EVQLQQSGAEFGKPGTSVKLSCKVSGYNIRSSYMHWVNQRPGKGLEWIGRIDPANGNTIYAEKFKIKAILTADSSSNTAYMQLSQLKSDDTAIYFCAMDLYSTSEYWGQGVMVTVSS VL: DIQMTQSPSFLSASVGDRVTINCKTSQNINRYLNWYQQKLGEAPKLLIYNANSLQTGIPSRFSASGSGTDFTLTINSLQPEDVATYFCLQDNSWPLTFGSGTKLEIKR
